Holding throughout (assay): SPR
A general note: Surface plasmon resonance follows binding to a sensor surface in real time, without labels.

Experiment [1] concerns the target recombinant mouse transferrin receptor (TfR) protein (mouse, UniProt Q62351 1-763).
Experiment [2] has as its target recombinant human transferrin receptor (TfR) protein (human, UniProt P02786 101-760).
In experiment [3] the target is low-density lipoprotein receptor-related protein 1 (LRP-1), human (human).

Ends that are not written are not given here.

recombinant human transferrin receptor (TfR) protein, sequence (P02786 101-760): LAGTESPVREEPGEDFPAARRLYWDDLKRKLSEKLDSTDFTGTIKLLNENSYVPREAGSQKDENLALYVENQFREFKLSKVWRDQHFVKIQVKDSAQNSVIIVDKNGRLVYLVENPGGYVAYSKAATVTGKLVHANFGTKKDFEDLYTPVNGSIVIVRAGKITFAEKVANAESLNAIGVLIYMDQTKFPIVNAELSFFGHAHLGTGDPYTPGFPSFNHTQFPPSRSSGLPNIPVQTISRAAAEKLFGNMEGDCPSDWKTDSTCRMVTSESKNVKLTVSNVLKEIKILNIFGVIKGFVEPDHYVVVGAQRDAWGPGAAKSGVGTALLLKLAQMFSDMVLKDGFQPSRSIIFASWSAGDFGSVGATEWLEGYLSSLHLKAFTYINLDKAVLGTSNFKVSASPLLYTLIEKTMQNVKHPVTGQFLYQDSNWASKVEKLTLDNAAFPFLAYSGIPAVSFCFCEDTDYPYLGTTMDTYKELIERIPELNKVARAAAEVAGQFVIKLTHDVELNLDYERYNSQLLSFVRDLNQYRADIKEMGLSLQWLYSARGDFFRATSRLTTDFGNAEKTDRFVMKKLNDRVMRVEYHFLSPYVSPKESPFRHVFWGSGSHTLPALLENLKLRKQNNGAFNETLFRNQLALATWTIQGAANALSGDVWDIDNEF
recombinant mouse transferrin receptor (TfR) protein, sequence (Q62351 89-763): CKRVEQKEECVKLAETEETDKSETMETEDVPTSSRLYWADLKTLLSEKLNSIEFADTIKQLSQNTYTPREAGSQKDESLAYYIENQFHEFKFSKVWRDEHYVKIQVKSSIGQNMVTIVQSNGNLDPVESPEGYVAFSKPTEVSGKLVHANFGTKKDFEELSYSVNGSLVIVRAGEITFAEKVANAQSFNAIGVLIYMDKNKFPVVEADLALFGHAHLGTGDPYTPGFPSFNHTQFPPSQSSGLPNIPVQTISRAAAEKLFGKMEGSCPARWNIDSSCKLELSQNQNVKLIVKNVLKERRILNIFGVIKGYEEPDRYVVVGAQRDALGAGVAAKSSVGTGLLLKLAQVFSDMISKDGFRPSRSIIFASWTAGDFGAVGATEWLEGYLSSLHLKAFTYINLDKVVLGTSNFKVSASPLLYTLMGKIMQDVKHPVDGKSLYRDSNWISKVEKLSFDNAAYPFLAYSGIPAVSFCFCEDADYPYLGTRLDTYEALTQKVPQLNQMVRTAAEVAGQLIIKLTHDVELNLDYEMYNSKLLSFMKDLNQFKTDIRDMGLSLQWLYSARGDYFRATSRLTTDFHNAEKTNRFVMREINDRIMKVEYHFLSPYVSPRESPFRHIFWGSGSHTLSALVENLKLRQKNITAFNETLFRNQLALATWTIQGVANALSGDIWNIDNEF

B1: MTfp (peptide 1), peptide derived from melanotransferrin (peptide)
peptide: FRCLVENRGDVPFVTRIR-NH2
For B1, the figures for the Kd in experiment [1], in experiment [2] and in experiment [3] were 1300 nM, 507 nM and 0.57 nM, respectively.

B2: GYR (peptide 2) (peptide)
peptide: GYRPVHNIRGHWAPGK-NH2
As to B2, the Kd (commonly a measure of binding affinity in units of concentration) in experiment [2] was 171000 nM; in experiment [3], 100 nM.

The record behind these values is paper PMC8018780 (2021).
